Molecular target: dipeptidyl peptidase 4 (DPP4), cellular receptor on Huh-7 cells (human) (UniProt P27487)
Experiment: cell-based or functional assay

Chain of UniProt P27487 (P27487 whole entry): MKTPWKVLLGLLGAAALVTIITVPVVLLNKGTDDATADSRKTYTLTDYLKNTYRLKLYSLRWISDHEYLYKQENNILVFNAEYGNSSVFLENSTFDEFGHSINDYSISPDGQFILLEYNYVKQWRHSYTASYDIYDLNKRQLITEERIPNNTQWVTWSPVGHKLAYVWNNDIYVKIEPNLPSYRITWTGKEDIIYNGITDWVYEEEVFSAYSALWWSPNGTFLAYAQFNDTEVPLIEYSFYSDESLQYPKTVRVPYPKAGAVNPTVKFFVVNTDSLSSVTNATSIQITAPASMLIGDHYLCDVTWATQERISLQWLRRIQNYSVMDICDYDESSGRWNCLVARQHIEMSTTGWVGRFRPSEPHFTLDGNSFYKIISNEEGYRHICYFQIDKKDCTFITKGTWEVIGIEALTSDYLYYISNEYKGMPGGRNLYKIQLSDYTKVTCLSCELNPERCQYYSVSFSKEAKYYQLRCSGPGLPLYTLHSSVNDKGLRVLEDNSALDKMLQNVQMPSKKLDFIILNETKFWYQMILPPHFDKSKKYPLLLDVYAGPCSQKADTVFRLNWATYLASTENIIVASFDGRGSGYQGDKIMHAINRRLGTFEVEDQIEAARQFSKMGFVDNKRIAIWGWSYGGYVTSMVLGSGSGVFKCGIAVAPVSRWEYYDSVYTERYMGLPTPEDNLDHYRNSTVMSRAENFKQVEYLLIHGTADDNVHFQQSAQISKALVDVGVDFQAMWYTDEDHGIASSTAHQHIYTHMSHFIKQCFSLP

Substance: S377-588-Fc (residues 377-588 of MERS-CoV S protein fused to Fc of human IgG) (Fc fusion)
- inhibition of CPE formation caused by MERS-CoV infection in Calu-3 cells: 3 µg/mL

Reference: US20190328865A1
